Values quoted from earlier work in article PMC3901638.

Target: PEDF-R (Homo sapiens) (UniProt Q96AD5)
Assay: Surface Plasmon Resonance

UniProt Q96AD5, sequence (Q96AD5 whole entry): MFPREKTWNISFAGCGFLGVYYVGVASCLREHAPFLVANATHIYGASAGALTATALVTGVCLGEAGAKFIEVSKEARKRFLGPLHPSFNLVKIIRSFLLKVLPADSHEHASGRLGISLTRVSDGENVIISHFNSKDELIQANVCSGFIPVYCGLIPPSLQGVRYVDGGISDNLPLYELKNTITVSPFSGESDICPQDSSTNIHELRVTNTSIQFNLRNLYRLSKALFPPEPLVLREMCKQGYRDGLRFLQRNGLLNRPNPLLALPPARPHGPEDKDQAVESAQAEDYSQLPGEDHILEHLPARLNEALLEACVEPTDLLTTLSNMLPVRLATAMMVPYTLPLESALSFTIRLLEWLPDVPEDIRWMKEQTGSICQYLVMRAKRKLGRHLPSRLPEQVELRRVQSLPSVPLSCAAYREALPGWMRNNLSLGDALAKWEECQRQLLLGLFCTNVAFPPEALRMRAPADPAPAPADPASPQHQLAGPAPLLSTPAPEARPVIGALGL

Question: Which Kd does the source give for PEDF (from UniProt P36955) here?
Answer: 3 nM
